These results are taken from article PMC9825171 (Nucleic Acids Research, 2022).

For series [1], the target named is RBPJ (53–474) (Mus musculus, UniProt P31266). The series can be described thus: ITC binding of L3MBTL3 constructs and peptides to native RBPJ. The following applies: 25°C; for Kd / K: 50 mM sodium phosphate pH 6.5, 150 mM NaCl, one site binding model; for Kd: mean of at least three independent experiments; for K: mean of at least three independent experiments ± SD, NBD = no binding detected.
Chain of RBPJ (53–474) (P31266 53-474): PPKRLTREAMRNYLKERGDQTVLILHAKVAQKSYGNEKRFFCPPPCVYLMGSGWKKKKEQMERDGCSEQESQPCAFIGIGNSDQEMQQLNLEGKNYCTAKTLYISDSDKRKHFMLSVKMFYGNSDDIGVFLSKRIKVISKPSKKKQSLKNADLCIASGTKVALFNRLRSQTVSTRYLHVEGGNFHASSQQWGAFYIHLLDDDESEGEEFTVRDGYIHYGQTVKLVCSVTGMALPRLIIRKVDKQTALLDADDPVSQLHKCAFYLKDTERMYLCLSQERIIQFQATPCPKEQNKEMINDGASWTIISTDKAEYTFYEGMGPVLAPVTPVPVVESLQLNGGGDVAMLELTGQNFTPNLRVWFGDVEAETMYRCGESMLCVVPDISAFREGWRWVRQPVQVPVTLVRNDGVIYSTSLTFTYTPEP

For series [2], the target named is RBPJ. The following applies: read-out: affinity for RBPJ; ref [19],[20]; cited from earlier work.
Where [3] appears, read: pH 6.5, mean of at least three independent experiments ± SD.

B1: 1–197: human L3MBTL3 fragment, the N-terminus (1–197) (protein, UniProt Q96JM7 1-197, looked up, fragment)
chain: MTESASSTSGQEFDVFSVMDWKDGVGTLPGSDLKFRVNEFGALEVITDENEMENVKKATATTTWMVPTAQEAPTSPPSSRPVFPPAYWTSPPGCPTVFSEKTGMPFRLKDPVKVEGLQFCENCCQYGNVDECLSGGNYCSQNCARHIKDKDQKEERDVEEDNEEEDPKCSRKKKPKLSLKADTKEDGEERDDEMENK
For the molecule B1, in series [1], the Kd worked out at 1500 nM and the K is 6.6 ± 0.3 × 10^5 M^−^1. In addition, in series [1] (setting [3]), the “ΔG°” value was -7.9 ± 0.03 kcal/mol, the “ΔH°” value is given as -7.2 ± 0.1 kcal/mol and the “–TΔS°” value was -0.7 ± 0.1 kcal/mol.

B2: RITA1: corepressor, RBPJ interacting Tubulin associated protein 1 (protein, UniProt Q96K30 1-269, looked up)
RBPJ-interacting and …: MKTPVELAVSGMQTLGLQHRCRGGYRVKARTSYVDETLFGSPAGTRPTPPDFDPPWVEKANRTRGVGKEASKALGAKGSCETTPSRGSTPTLTPRKKNKYRPISHTPSYCDESLFGSRSEGASFGAPRMAKGDAAKLRALLWTPPPTPRGSHSPRPREAPLRAIHPAGPSKTEPGPAADSQKLSMGGLHSSRPLKRGLSHSLTHLNVPSTGHPATSAPHTNGPQDLRPSTSGVTFRSPLVTSRARSVSISVPSTPRRGGATQKPKPPWK
As for B2, the Kd in series [2] is approximately 1000 nM.

B3: 198–523: human L3MBTL3 fragment, the MBT domains (198–523) (protein, UniProt Q96JM7 198-523, looked up, fragment)
chain: QDVRILRGSQRARRKRRGDSAVLKQGLPPKGKKAWCWASYLEEEKAVAVPAKLFKEHQSFPYNKNGFKVGMKLEGVDPEHQSVYCVLTVAEVCGYRIKLHFDGYSDCYDFWVNADALDIHPVGWCEKTGHKLHPPKGYKEEEFNWQTYLKTCKAQAAPKSLFENQNITVIPSGFRVGMKLEAVDKKNPSFICVATVTDMVDNRFLVHFDNWDESYDYWCEASSPHIHPVGWCKEHRRTLITPPGYPNVKHFSWDKYLEETNSLPAPARAFKVKPPHGFQKKMKLEVVDKRNPMFIRVATVADTDDHRVKVHFDGWNNCYDYWIDAD
B3: in series [1], the “binding to RBPJ, in words” value is given as “no detectable binding” and the K entry is “NBD”.

B4: 1–523: human L3MBTL3 fragment, N-terminal region through the MBT domains (residues 1–523) (protein, UniProt Q96JM7 1-523, looked up, fragment)
chain: MTESASSTSGQEFDVFSVMDWKDGVGTLPGSDLKFRVNEFGALEVITDENEMENVKKATATTTWMVPTAQEAPTSPPSSRPVFPPAYWTSPPGCPTVFSEKTGMPFRLKDPVKVEGLQFCENCCQYGNVDECLSGGNYCSQNCARHIKDKDQKEERDVEEDNEEEDPKCSRKKKPKLSLKADTKEDGEERDDEMENKQDVRILRGSQRARRKRRGDSAVLKQGLPPKGKKAWCWASYLEEEKAVAVPAKLFKEHQSFPYNKNGFKVGMKLEGVDPEHQSVYCVLTVAEVCGYRIKLHFDGYSDCYDFWVNADALDIHPVGWCEKTGHKLHPPKGYKEEEFNWQTYLKTCKAQAAPKSLFENQNITVIPSGFRVGMKLEAVDKKNPSFICVATVTDMVDNRFLVHFDNWDESYDYWCEASSPHIHPVGWCKEHRRTLITPPGYPNVKHFSWDKYLEETNSLPAPARAFKVKPPHGFQKKMKLEVVDKRNPMFIRVATVADTDDHRVKVHFDGWNNCYDYWIDAD
Take B4: in series [1], the Kd was 1900 nM and the K was 5.4 ± 0.9 × 10^5 M^−^1. In addition, in series [1] (setting [3]), the “ΔG°” value is -7.7 ± 0.2 kcal/mol and the “–TΔS°” value turned out to be 2.9 ± 1.8 kcal/mol.
